# Results taken from the nanobody polyreactivity screen of Harvey et al. (2022).
# Assay: yeast display, Sf9 membrane polyspecificity reagent, FACS + sequencing; frameworks hold sequencing errors
# Procedure, shortened: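 Nanobodies came from a synthetic yeast display library in Saccharomyces cerevisiae BJ5465, induced with galactose for 36–48 hours and stained for 1 hour at 4 °C with 10% biotinylated, detergent-solubilized Sf9 membrane reagent. Cells were enriched on streptavidin microbeads and then FACS-sorted, with low and high (top ~1%) gates set on anti-HA fluorescence for expression and streptavidin fluorescence for reagent binding. Each polyreactivity label reflects the gate a clone came from. Genes were amplified by colony PCR, sequenced by MiSeq 2 × 250 and filtered by CDR length.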
sequence,measurement,value
QVQLVESGGGLVQAGGSLRLSSAASGLIFTRYAMGWYRQATGKERELVAAISYSGTSTYYADSVKGRFTISRDNAKNTVYLQMNSLKPEDTAVYYCAARSSYPLKGYYWGQGTQVTVSS,polyreactivity (PSR sort gate),high polyreactivity
QVQLVESGGGLVQAGGSLRLSSAASGNIFPAYPMGWYRQAPGKERELVAAISKSGGRTYYADSVKGRFTISRDNAKNTVYLQMNSLKPEDTAVYYALLTVLRAVPYSVRYDYWGQGTQVTVSS,polyreactivity (PSR sort gate),high polyreactivity
QVQLVESGGGLVQAGGSLRLSSAASGNIFSDYAMGWNIQAPGKERELVAAISSGGNTNYADSVKGRFTISRDNAKNTVYLQMNSLKPEDTAVYYCAAVYNTTYTLLPEYIYDYWGHGTQVTVSS,polyreactivity (PSR sort gate),low polyreactivity
QVQLVESGGGLVQAGGSLRLSSAASGNIFYTNTMGWYRQAPGKERELVAAITSGGTTYYADSVKGRFTISRDNAKNTVYLQMNSLKPEDTAVYYCAVRSSKWSWIYYYWGQGTQVTVSS,polyreactivity (PSR sort gate),high polyreactivity
QVQLVESGGGLVQAGGSLRLSSAASGRIFDDNAMGWYRQAPGKERELVAAITGPDDSTDYADSVKGRFTISRDNAKNTVYLQMNSLKPEDTAVYYCAKDAGYWYYWNGYWGQGTQVTVSS,polyreactivity (PSR sort gate),high polyreactivity
QVQLVESGGGLVQAGGSLRLSSAASGRIFGRYAMGWYRQAPGKERELVDAITCTGGTTYYADSVKGRFTISRDNAKNTVYLQMNSLKPEDTAVYYCAARQGYGIYGDYYYWGQGTHVTVSS,polyreactivity (PSR sort gate),high polyreactivity
QVQLVESGGGLVQAGGSLRLSSAASGRIFIDYAMGWYRQAPGTDRELVATITSSGGSTYYADSVKGRFTISRDNAKNTVYIQMTSLKPVDTAVYYCNAKERYYFGNYKYGYWGQGTQVTVSS,polyreactivity (PSR sort gate),low polyreactivity
QVQLVESGGGLVQAGGSLRLSSAASGRIFKDNAMGWYRQAPGKERELVAAISSGASTSYADSVKGRFTISRDNAKNTVYLQMNSLKPEDTAVYYCNRGGYLYYPGWLFDYWGQGTQVTVSS,polyreactivity (PSR sort gate),low polyreactivity
QVQLVESGGGLVQAGGSLRLSSAASGRIFNIYAMGWYRQAPGKERELVARITSGGRTNYADSVKGRFTISRDNAKNTVYLQRNSLKPEDTAVYYCAARTYGQRGDYWGQGTQVTVSS,polyreactivity (PSR sort gate),high polyreactivity
QVQLVESGGGLVQAGGSLRLSSAASGRIFPYYAMGWYRQAPGKERELVAAITSSGGSTYYADSVKGRFTISRDTAKNTVYFQMNSLKPEDSAVYYCAGTSPYDDYPYTRGIYAYGYWGQCTQVTVSS,polyreactivity (PSR sort gate),low polyreactivity
QVQLVESGGGLVQAGGSLRLSSAASGRIFQKYAMGWYRPAPGKERELVAAISSGDSTYADSVKGRFTISRDNAKNTVYLQMNSLKPEDTAVYYCAADDRWDYDYWGQGTQGTVSS,polyreactivity (PSR sort gate),low polyreactivity
QVQLVESGGGLVQAGGSLRLSSAASGRIFRGNVMGWYRQAPGKERELVAVIRSSSGRTYYADSVKGRFTISRDNAKNTVYLQMNSLKPEDTAVYDCAAKSVWGQGTQVTVSS,polyreactivity (PSR sort gate),high polyreactivity
QVQLVESGGGLVQAGGSLRLSSAASGRIFRHYAMGWYRQAPGKERELVASITRGDNTYYADSVKGRFTISRDNAKNTVYLQMNSLKPEDSAVYYCAAVFYSYSSASEYYYWGQGTQVTVSS,polyreactivity (PSR sort gate),high polyreactivity
QVQLVESGGGLVQAGGSLRLSSAASGRIFSYNAMGWYRQAPGKERELVASISYSGTSTYYADSVKGRFTISRDNAKNTVYLQMNRLKPEDTAVYYCAALSRRRFGYWGQGTQVTVSS,polyreactivity (PSR sort gate),high polyreactivity
QVQLVESGGGLVQAGGSLRLSSAASGRIFTYYAMGWYRQAPGKERELVATISRRGGSTYYADSVKGRFTISRDNAKNTVYLQMNSLKPEDTAVYYCNRTYYGYDYWGHGTQVTVSS,polyreactivity (PSR sort gate),high polyreactivity
QVQLVESGGGLVQAGGSLRLSSAASGRIFWFNAMGWYRQAPGKEREWVATISSGDSTNYADSVKGRFTISRDNAKNTVYLQMNSLKPDDTAVYYCNARVSHVQVGFDSWGQCTQVTVSS,polyreactivity (PSR sort gate),low polyreactivity
QVQLVESGGGLVQAGGSLRLSSAASGRIFYGYAMGWYRQAPGKERELVAAISWSGGSTYYADSVKWRFTISRDNAKNTVYLQMNSLKPEDTAVYYCARRDRGGYKYDYWGQGTQVTVSS,polyreactivity (PSR sort gate),high polyreactivity
QVQLVESGGGLVQAGGSLRLSSAASGRIFYNYAMGWYRQSPGKERELVAAISGSGGSTYYADSVKGRFTISRDNAKNTVYLQMNSLKPEDTAVFYCSTSGPQYYSRNFDYWGQGTQVTVSS,polyreactivity (PSR sort gate),low polyreactivity
QVQLVESGGGLVQAGGSLRLSSAASGRIFYRNAMGWCRQAPGKERELVASITSAGRRYYADSVKGRFTISRDNAKNTVYLQMNSLKPEDTAVYYCAVRVAVLLNLYGYWGQGTQVTVSS,polyreactivity (PSR sort gate),low polyreactivity
QVQLVESGGGLVQAGGSLRLSSAASGRIFYYNAMGWYSQAPGKERELVAAITRGGSTYYADSVKGRFTISRDNAKNTVYLQMNSLKPEDTAVYYCAAYLDYWSYLNGQYDYWGQGTQVTVSS,polyreactivity (PSR sort gate),high polyreactivity
QVQLVESGGGLVQAGGSLRLSSAASGRIIDDNTMGWYRQAPGKERELVAAISVSGGRTYYADSVKGRFTISRDNAKNTVYLQMNSLNPEDTAVYFCAAARGGEYWGQGTQVTVSS,polyreactivity (PSR sort gate),high polyreactivity
QVQLVESGGGLVQAGGSLRLSSAASGRTFNIYAKGWYRHAPGKERELVAAITWRSGSTYDADSVKGRFTISRDNAKNTVYLQMNSLKPEDTAVYYCAAEQWSSVPEFDYWGQGTQVTVSS,polyreactivity (PSR sort gate),high polyreactivity
QVQLVESGGGLVQAGGSLRLSSAASGRTFRHYALGWSRQAPGKERELVAVISWRGTGTYYADSVKGRFTISRDNAKNTVYLQMTSLKPEDTSVYYCATVWGLGYRMNYWGQGTQVTVSS,polyreactivity (PSR sort gate),high polyreactivity
QVQLVESGGGLVQAGGSLRLSSAASGRTFRYYAMGWYRQAPGKERELVASISDGGSTNYADSVKGRFTISRDNAKNTVYLQMNSLKPEDTAVYYCAADGWWQYDYWGQGTQVTVSS,polyreactivity (PSR sort gate),low polyreactivity
QVQLVESGGGLVQAGGSLRLSSAASGRTFSSYAMGWYRQAPGKERELVAAINWSGASTYYADSVKGRFTISRDNAKNTVYLQMNSLKPEDTAVYYCAKSLYVGKYWQIRSSVDYWGQGTQVTVSS,polyreactivity (PSR sort gate),low polyreactivity
QVQLVESGGGLVQAGGSLRLSSAASGRTFYDYAMGWYRQAPGKERELVAAITYSGGSTFYADSVKGRFTISRDNAKNTVYLQMNSLTPEDTAVYYCAAEVLRLGGAAEYDYCGQGTQVTVSS,polyreactivity (PSR sort gate),low polyreactivity
QVQLVESGGGLVQAGGSLRLSSAASGRTFYRHAMGWYRQAPGKERELVAASTRSGSTNYADSVKGRFTISRDNAKNTVYLQMNSLKPEDTADYYCAAKFFRNTYSYGMDYWGQGTQVTVSS,polyreactivity (PSR sort gate),high polyreactivity
QVQLVESGGGLVQAGGSLRLSSAASGRTFYRNAIGWYRQAPGKERELVAAISSGSTTYYADSVKGRFTISRDNAKNTVYLQMNSLKPEDTAVYYCATTLRQYKPPSGRDYWGQGTQVTVSS,polyreactivity (PSR sort gate),low polyreactivity
QVQLVESGGGLVQAGGSLRLSSAASGRTFYSNAMGWYRQAPGKERELVAAITRGASTKYADSVKGRFTISRDNAKNSVYLQMNSLKPEDTAVYYCDTARYPRYIYDYWGQGTQVTVSS,polyreactivity (PSR sort gate),low polyreactivity
QVQLVESGGGLVQAGGSLRLSSAASGRTFYWYAMGWYRQAPGKQRELVASISIDGRTYYADSVKGRFTISRDNAKNNVYLQMNSLKPEDTAVYYCNVVRYYPYRPTTKRGGGYWGQGTQVSVSS,polyreactivity (PSR sort gate),high polyreactivity
QVQLVESGGGLVQAGGSLRLSSAASGRTFYYYAFGWYRQAPGKERELVARITAICGRTYYADSVKGRFTISLDNAKNTVYLQMNCLKPEDTAVYYCAAASWPAYSYYPFYYWGQGSQVTVSS,polyreactivity (PSR sort gate),high polyreactivity
QVQLVESGGGLVQAGGSLRLSSAASGRTISNYDMGWYRQAPGKERELVAAITYSGGSTYYADSVKGRFTISRDNAKNTVYLQMNSLKPEDTAVYYCAKISGTYYRYDYWGQGTQVTVSS,polyreactivity (PSR sort gate),high polyreactivity
